B1: RHOBTB3 (parent)
chain: KVVEAHKIVLCAVSHVFMLLFNVK
B2: IMPA1 (parent)
chain: FIGEESVAAGEKSILTDNPTWIID

Variants of: B1
Test: protein stability index of a GFP-peptide fusion (GPS, HEK-293T) (PSI 1-6); higher = more stable
Conditions: c terminus: a fixed tail appended
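Further: lentivirally expressed fusions sorted by FACS into six bins by GFP to DsRed ratio, PSI derived from sequencing read proportions per bin multiplied by bin number.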

Variant	protein stability index
KVVEAHKIVLCAVSHVFMLLFNVT [K24T]	2.95
KVVEAHKIVLCAVSHVFMLLFNVR [K24R]	2.48
KVVEAHKIVLCAVSHVFMLLFNVL [K24L]	2.21
KVVEAHKIVLCAVSHVFMLLFNVY [K24Y]	2.57
KVVEAHKIVLCAVSHVFMLLFNVV [K24V]	3.19
KVVEAHKIVLCAVSHVFMLLFNVW [K24W]	2.42
KVVEAHKIVLCAVSHVFMLLFNVN [K24N]	4.04
KVVEAHKIVLCAVSHVFMLLFNVM [K24M]	2.27
KVVEAHKIVLCAVSHVFMLLFNVP [K24P]	3.35

Variants of: B2
Test: as above
Conditions: c terminus: a fixed tail appended

Variant	protein stability index
FIGEESVAAHEKSILTDNPTWIID [G10H]	1.87
FIGEESVAACEKSILTDNPTWIID [G10C]	2.21
FIGEESVAAFEKSILTDNPTWIID [G10F]	1.85
FIGEESVAAAEKSILTDNPTWIID [G10A]	2.18
FIGEESVAAEEKSILTDNPTWIID [G10E]	2.8
FIGEESVAADEKSILTDNPTWIID [G10D]	2.48
FIGEESVAAIEKSILTDNPTWIID [G10I]	2.43
FIGEESVAAKEKSILTDNPTWIID [G10K]	2.01
FDGEESVAAGEKSILTDNPTWIID [I2D]	4.79
FTGEESVAAGEKSILTDNPTWIID [I2T]	2.83
FVGEESVAAGEKSILTDNPTWIID [I2V]	1.1
FLGEESVAAGEKSILTDNPTWIID [I2L]	2.99
FMGEESVAAGEKSILTDNPTWIID [I2M]	3.7
FFGEESVAAGEKSILTDNPTWIID [I2F]	3.65
FHGEESVAAGEKSILTDNPTWIID [I2H]	2.59
FGGEESVAAGEKSILTDNPTWIID [I2G]	4.24
FPGEESVAAGEKSILTDNPTWIID [I2P]	3.05
FAGEESVAAGEKSILTDNPTWIID [I2A]	2.59
FSGEESVAAGEKSILTDNPTWIID [I2S]	3.65
FQGEESVAAGEKSILTDNPTWIID [I2Q]	3.89
FRGEESVAAGEKSILTDNPTWIID [I2R]	4.28
FKGEESVAAGEKSILTDNPTWIID [I2K]	4.42
FCGEESVAAGEKSILTDNPTWIID [I2C]	2.27
FWGEESVAAGEKSILTDNPTWIID [I2W]	2.74
FNGEESVAAGEKSILTDNPTWIID [I2N]	4.25
FYGEESVAAGEKSILTDNPTWIID [I2Y]	3.4

Variant	protein stability index
FEGEESVAAGEKSILTDNPTWIID [I2E]	4.82
FIGEESVAEGEKSILTDNPTWIID [A9E]	2.42
FIGEESVAFGEKSILTDNPTWIID [A9F]	2.04
FIGEESVAGGEKSILTDNPTWIID [A9G]	2.09
FIGEESVAPGEKSILTDNPTWIID [A9P]	2.52
FIGEESVAMGEKSILTDNPTWIID [A9M]	1.75
FIGEESVAHGEKSILTDNPTWIID [A9H]	1.8
FIGEESVACGEKSILTDNPTWIID [A9C]	1.84
FIGEESVAWGEKSILTDNPTWIID [A9W]	1.87
FIGEESVANGEKSILTDNPTWIID [A9N]	2.03
FIGEESVAQGEKSILTDNPTWIID [A9Q]	2.24
FIGEESVAKGEKSILTDNPTWIID [A9K]	1.96
FIGEESVAIGEKSILTDNPTWIID [A9I]	1.81
FIGEESVALGEKSILTDNPTWIID [A9L]	1.78
FIGEESVADGEKSILTDNPTWIID [A9D]	2.98
FIGEESVASGEKSILTDNPTWIID [A9S]	1.95
FIGEESVAYGEKSILTDNPTWIID [A9Y]	2.59
FIGEESVATGEKSILTDNPTWIID [A9T]	2.1
FIGEESVARGEKSILTDNPTWIID [A9R]	1.5
FIGEESVAVGEKSILTDNPTWIID [A9V]	2.31
FIGEESWAAGEKSILTDNPTWIID [V7W]	1.94
FIGEESNAAGEKSILTDNPTWIID [V7N]	2.4
FIGEESFAAGEKSILTDNPTWIID [V7F]	2.05
FIGEESAAAGEKSILTDNPTWIID [V7A]	2.46
FIGEESYAAGEKSILTDNPTWIID [V7Y]	2.01
FIGEESIAAGEKSILTDNPTWIID [V7I]	1.92

Variant	protein stability index
FIGEESSAAGEKSILTDNPTWIID [V7S]	2.17
FIGEESQAAGEKSILTDNPTWIID [V7Q]	2.19
FIGEESMAAGEKSILTDNPTWIID [V7M]	1.94
FIGEESRAAGEKSILTDNPTWIID [V7R]	1.85
FIGEESHAAGEKSILTDNPTWIID [V7H]	2.06
FIGEESTAAGEKSILTDNPTWIID [V7T]	2.28
FIGEESGAAGEKSILTDNPTWIID [V7G]	2.15
FIGEESDAAGEKSILTDNPTWIID [V7D]	2.71
FIGEESPAAGEKSILTDNPTWIID [V7P]	2.19
FIGEESLAAGEKSILTDNPTWIID [V7L]	2.25
FIGEESCAAGEKSILTDNPTWIID [V7C]	2
FIGEESKAAGEKSILTDNPTWIID [V7K]	2.53
FIGEESEAAGEKSILTDNPTWIID [V7E]	3.03
FIGEESVWAGEKSILTDNPTWIID [A8W]	1.74
FIGEESVKAGEKSILTDNPTWIID [A8K]	2.35
FIGEESVSAGEKSILTDNPTWIID [A8S]	2.3
FIGEESVMAGEKSILTDNPTWIID [A8M]	2.05
FIGEESVGAGEKSILTDNPTWIID [A8G]	2.46
FIGEESVYAGEKSILTDNPTWIID [A8Y]	2.39
FIGEESVRAGEKSILTDNPTWIID [A8R]	1.62
FIGEESVEAGEKSILTDNPTWIID [A8E]	2.79
FIGEESVCAGEKSILTDNPTWIID [A8C]	1.55
FIGEESVIAGEKSILTDNPTWIID [A8I]	1.58
FIGEESVFAGEKSILTDNPTWIID [A8F]	1.84
FIGEESVLAGEKSILTDNPTWIID [A8L]	2.08
FIGEESVTAGEKSILTDNPTWIID [A8T]	2.13

Variant	protein stability index
FIGEESVDAGEKSILTDNPTWIID [A8D]	2.72
FIGEESVVAGEKSILTDNPTWIID [A8V]	2.52
FIGEESVPAGEKSILTDNPTWIID [A8P]	2.54
FIGEESVNAGEKSILTDNPTWIID [A8N]	2.23
FIGEESVHAGEKSILTDNPTWIID [A8H]	1.75
FIGEESVQAGEKSILTDNPTWIID [A8Q]	2.29
TIGEESVAAGEKSILTDNPTWIID [F1T]	4.76
KIGEESVAAGEKSILTDNPTWIID [F1K]	4.61
PIGEESVAAGEKSILTDNPTWIID [F1P]	4.56
IIGEESVAAGEKSILTDNPTWIID [F1I]	3.98
EIGEESVAAGEKSILTDNPTWIID [F1E]	4.81
SIGEESVAAGEKSILTDNPTWIID [F1S]	4.96
NIGEESVAAGEKSILTDNPTWIID [F1N]	4.45
VIGEESVAAGEKSILTDNPTWIID [F1V]	4.52
RIGEESVAAGEKSILTDNPTWIID [F1R]	4.38
HIGEESVAAGEKSILTDNPTWIID [F1H]	4.56
LIGEESVAAGEKSILTDNPTWIID [F1L]	4.34
QIGEESVAAGEKSILTDNPTWIID [F1Q]	4.87
DIGEESVAAGEKSILTDNPTWIID [F1D]	5.07
MIGEESVAAGEKSILTDNPTWIID [F1M]	4.6
WIGEESVAAGEKSILTDNPTWIID [F1W]	3.74
AIGEESVAAGEKSILTDNPTWIID [F1A]	4.65
CIGEESVAAGEKSILTDNPTWIID [F1C]	4.46
YIGEESVAAGEKSILTDNPTWIID [F1Y]	2.54
GIGEESVAAGEKSILTDNPTWIID [F1G]	4.86
FIGEEDVAAGEKSILTDNPTWIID [S6D]	2.56

Variant	protein stability index
FIGEECVAAGEKSILTDNPTWIID [S6C]	1.7
FIGEEIVAAGEKSILTDNPTWIID [S6I]	1.73
FIGEEQVAAGEKSILTDNPTWIID [S6Q]	2.42
FIGEEEVAAGEKSILTDNPTWIID [S6E]	3.07
FIGEEYVAAGEKSILTDNPTWIID [S6Y]	1.51
FIGEEPVAAGEKSILTDNPTWIID [S6P]	3.1
FIGEEGVAAGEKSILTDNPTWIID [S6G]	2.42
FIGEEWVAAGEKSILTDNPTWIID [S6W]	2.53
FIGEENVAAGEKSILTDNPTWIID [S6N]	2.25
FIGEEMVAAGEKSILTDNPTWIID [S6M]	2.07
FIGEETVAAGEKSILTDNPTWIID [S6T]	2.23
FIGEERVAAGEKSILTDNPTWIID [S6R]	1.51
FIGEEAVAAGEKSILTDNPTWIID [S6A]	2.01
FIGEEKVAAGEKSILTDNPTWIID [S6K]	1.57
FIGEEVVAAGEKSILTDNPTWIID [S6V]	1.7
FIGEEHVAAGEKSILTDNPTWIID [S6H]	2.29
FIGEEFVAAGEKSILTDNPTWIID [S6F]	1.81
FIGEELVAAGEKSILTDNPTWIID [S6L]	2.24
FIFEESVAAGEKSILTDNPTWIID [G3F]	1.93
FIEEESVAAGEKSILTDNPTWIID [G3E]	3.55
FIHEESVAAGEKSILTDNPTWIID [G3H]	1.86
FIKEESVAAGEKSILTDNPTWIID [G3K]	2.17
FITEESVAAGEKSILTDNPTWIID [G3T]	1.92
FICEESVAAGEKSILTDNPTWIID [G3C]	1.31
FISEESVAAGEKSILTDNPTWIID [G3S]	1.89
FIDEESVAAGEKSILTDNPTWIID [G3D]	3.27

Variant	protein stability index
FILEESVAAGEKSILTDNPTWIID [G3L]	1.6
FIYEESVAAGEKSILTDNPTWIID [G3Y]	1.88
FIQEESVAAGEKSILTDNPTWIID [G3Q]	2.52
FIVEESVAAGEKSILTDNPTWIID [G3V]	2.8
FIAEESVAAGEKSILTDNPTWIID [G3A]	2.05
FIPEESVAAGEKSILTDNPTWIID [G3P]	1.87
FIREESVAAGEKSILTDNPTWIID [G3R]	1.64
FINEESVAAGEKSILTDNPTWIID [G3N]	1.99
FIMEESVAAGEKSILTDNPTWIID [G3M]	1.78
FIIEESVAAGEKSILTDNPTWIID [G3I]	1.4
FIWEESVAAGEKSILTDNPTWIID [G3W]	1.59
FIGEQSVAAGEKSILTDNPTWIID [E5Q]	2.38
FIGEFSVAAGEKSILTDNPTWIID [E5F]	3.35
FIGENSVAAGEKSILTDNPTWIID [E5N]	1.53
FIGEISVAAGEKSILTDNPTWIID [E5I]	3.46
FIGECSVAAGEKSILTDNPTWIID [E5C]	2.7
FIGEMSVAAGEKSILTDNPTWIID [E5M]	2.31
FIGEKSVAAGEKSILTDNPTWIID [E5K]	1.88
FIGEYSVAAGEKSILTDNPTWIID [E5Y]	2.52
FIGESSVAAGEKSILTDNPTWIID [E5S]	1.92
FIGEVSVAAGEKSILTDNPTWIID [E5V]	3.68
FIGETSVAAGEKSILTDNPTWIID [E5T]	2.38
FIGELSVAAGEKSILTDNPTWIID [E5L]	1.71
FIGEDSVAAGEKSILTDNPTWIID [E5D]	1.89
FIGEASVAAGEKSILTDNPTWIID [E5A]	2.05
FIGERSVAAGEKSILTDNPTWIID [E5R]	2

Variant	protein stability index
FIGEGSVAAGEKSILTDNPTWIID [E5G]	2.79
FIGEWSVAAGEKSILTDNPTWIID [E5W]	1.29
FIGEHSVAAGEKSILTDNPTWIID [E5H]	1.93
FIGEPSVAAGEKSILTDNPTWIID [E5P]	2.35
FIGDESVAAGEKSILTDNPTWIID [E4D]	2.01
FIGCESVAAGEKSILTDNPTWIID [E4C]	2.04
FIGIESVAAGEKSILTDNPTWIID [E4I]	1.84
FIGWESVAAGEKSILTDNPTWIID [E4W]	3.71
FIGKESVAAGEKSILTDNPTWIID [E4K]	1.83
FIGYESVAAGEKSILTDNPTWIID [E4Y]	1.9
FIGPESVAAGEKSILTDNPTWIID [E4P]	1.77
FIGMESVAAGEKSILTDNPTWIID [E4M]	2.35
FIGAESVAAGEKSILTDNPTWIID [E4A]	2.54
FIGGESVAAGEKSILTDNPTWIID [E4G]	2.14
FIGHESVAAGEKSILTDNPTWIID [E4H]	1.76
FIGQESVAAGEKSILTDNPTWIID [E4Q]	1.5
FIGVESVAAGEKSILTDNPTWIID [E4V]	1.53
FIGTESVAAGEKSILTDNPTWIID [E4T]	1.85
FIGSESVAAGEKSILTDNPTWIID [E4S]	1.8
FIGLESVAAGEKSILTDNPTWIID [E4L]	1.8
FIGNESVAAGEKSILTDNPTWIID [E4N]	1.98
FIGRESVAAGEKSILTDNPTWIID [E4R]	2.04
FIGFESVAAGEKSILTDNPTWIID [E4F]	3.31

Reference: the supplement of paper PMC10567573
